The target in test [1] is T1, ubiquitin on ubiquitin-coated agarose beads (UniProt P0CG53 1-76).
T1 construct: ubiquitin, the cut product of the ubiquitin precursors; Coupled to agarose; also called ubiquitin-coated beads; ubiquitin-coated (U) agarose beads; source: bought: Millipore-Sigma (ubiquitin-coated agarose)
The experiment in a line: pull-down; ubiquitin-coated agarose beads with 1 µM purified GST-fusion protein in Buffer A (25 mM HEPES–KOH pH 7.4, 125 mM potassium acetate, 2.5 mM magnesium acetate, 5 mM EGTA) + 1% FBS, 2 h at room temperature; uncoated CL4B beads as control; immunoblot with anti-GST or anti-Stx3. The settings on record: both partners purified. On the technique in general: In western blotting, separated proteins are transferred to a membrane and probed.

The target of test [2] is T2, Purified bovine ubiquitin (bovine, UniProt P0CG53 1-76).
T2 construct: ubiquitin, bovine, the cut product of the ubiquitin precursors; also called free ubiquitin; mono-ubiquitin in solution; source: bought: Millipore-Sigma (U6253)
Put plainly: SPR; Biacore 2000, room temperature, HBS-EP buffer (10 mM HEPES pH 7.4, 150 mM NaCl, 3 mM EDTA, 0.005% Tween-20); GST-fusion proteins captured on a CM5 chip with a GST capture kit, free ubiquitin flowed over. The settings on record: both partners purified. Background: Surface plasmon resonance follows binding to a sensor surface in real time, without labels.

B1: GST fusion protein of the constitutively open mutant of cytoplasmic region Stx3 (L165A/E166A) (domain or fragment, rat, UniProt Q08849 1-265, looked up)
chain: MKDRLEQLKAKQLTQDDDTDEVEIAIDNTAFMDEFFSEIEETRLNIDKISEHVEEAKKLYSIILSAPIPEPKTKDDLEQLTTEIKKRANNVRNKLKSMEKHIEEDEVRSSADLRIRKSQHSVLSRKFVEVMTKYNEAQVDFRERSKGRIQRQLEITGKKTTDEEAAEMLESGNPAIFTSGIIDSQISKQALSEIEGRHKDIVRLESSIKELHDMFMDIAMLVENQGEMLDNIELNVMHTVDHVEKARDETKRAMKYQGQARKKLI
notes: syntaxin 3 (Stx3), rat, cytoplasmic region, residues 1-265, with LE165/166AA; Made by site-directed mutagenesis in the Stx3 (1–265) pGEX-4T-3 plasmid; also called open-conformation mutant (LE165/166AA); source: E. coli Rosetta 2, purified (glutathione agarose, eluted with glutathione, dialyzed)
Regarding B1, the “fold change of pull-down against wild-type Stx3” value in test [1] stood at 1.73 fold.

B2: GST-fusion protein containing only the Habc domain (1–146) of Stx3 (domain or fragment, rat, UniProt Q08849 1-146, looked up)
chain: MKDRLEQLKAKQLTQDDDTDEVEIAIDNTAFMDEFFSEIEETRLNIDKISEHVEEAKKLYSIILSAPIPEPKTKDDLEQLTTEIKKRANNVRNKLKSMEKHIEEDEVRSSADLRIRKSQHSVLSRKFVEVMTKYNEAQVDFRERSK
notes: syntaxin 3 (Stx3), rat, N-terminal region with the Habc domain, residues 1-146; Cloned into pGEX-4T-3, which by my knowledge puts GST at the N-terminus; also called GST-Stx3-Habc; GST-Stx3-1–146; source: E. coli Rosetta 2, purified (glutathione agarose, eluted with glutathione, dialyzed)
As usually defined, the Kd is a measure of binding affinity in units of concentration. For the molecule B2, the “fold change of pull-down against the entire Stx3 cytoplasmic domain” value in test [1] amounted to 3.78 fold. The same molecule showed a Kd in test [2] of 1360 µM.
